From the supplement of paper PMC10567573 come the findings set out here.

± gives the standard deviation.

This series can be described thus: protein stability index of a GFP-peptide fusion (GPS, HEK-293T) (PSI 1-6); higher = more stable. As to conditions: c terminus: a fixed tail appended.
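Note: 24-mer peptide tiles fused after GFP, lentivirally expressed, FACS-sorted into six equal bins by GFP/DsRed ratio, decoded by Illumina sequencing, PSI is the read-weighted mean bin number.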

On to MSSHLVEPPPPLHNNNNNCEENEQ [BNIP3L], for which the protein stability index stood at 5.56 ± 0.11 (treatment: DMSO) and 5.67 ± 0.11 (treatment: MLN4924 1 uM, 8 h).

In the case of MTDQQAEARSYLSEEMIAEFKAAF [TNNC2], the protein stability index is, setting by setting: (treatment: DMSO) 4.22 ± 0.13; (treatment: MLN4924 1 uM, 8 h) 4.25 ± 0.16.

MTKAQESLTLEDVAVDFTWEEWQF [ZNF649] displayed a protein stability index (treatment: DMSO) of 3.36 ± 0.12 and a protein stability index (treatment: MLN4924 1 uM, 8 h) of 3.74 ± 0.44.

Turning to MTLPLLRQTSTKAVQHFYNIKLEG [ESRRG], the protein stability index reads like this: (treatment: DMSO) 2.48 ± 0.18; (treatment: MLN4924 1 uM, 8 h) 2.44 ± 0.26.

In the case of MTNHQLSTTEWNDETLYQEFNGLK [CHIT1], the protein stability index by setting is: (treatment: DMSO) 4.37 ± 0.4; (treatment: MLN4924 1 uM, 8 h) 4.56 ± 0.19.

With MVQQIQENSVEFEACLVAQCDALI [TRIM9], the protein stability index came out at 2.9 ± 0.35 (treatment: DMSO) and 2.97 ± 0.36 (treatment: MLN4924 1 uM, 8 h).

Take NAGLSSTAGLLREQVAQLKQKVMT [JUNB]: the protein stability index reads like this: (treatment: DMSO) 3.42 ± 0.24; (treatment: MLN4924 1 uM, 8 h) 3.39 ± 0.42.

Take NCIGIRDFALHYCLHHVHYLATEY [GAN]: the protein stability index came to 3.1 ± 0.51 (treatment: DMSO) and 3.32 ± 0.33 (treatment: MLN4924 1 uM, 8 h).

With NDALSCEYECRRRMLMKRLDVTVQ [FAM98B], the protein stability index is, setting by setting: (treatment: DMSO) 2.61 ± 0.24; (treatment: MLN4924 1 uM, 8 h) 2.78 ± 0.38.

For the sequence NFKAHVSPHEMLQAVVLCSKKTFQ [USP39], the protein stability index by setting is: (treatment: DMSO) 2.25 ± 0.25; (treatment: MLN4924 1 uM, 8 h) 2.26 ± 0.3.

With NFVRERTLDKRWRVRKEAMMGLAQ [PDS5B], the protein stability index is, setting by setting: (treatment: DMSO) 2.8 ± 0.24; (treatment: MLN4924 1 uM, 8 h) 2.83 ± 0.39.

Take NGDLSRSLSPSPLGSSAASTALER [FCHO1]: the protein stability index runs as follows: (treatment: DMSO) 4.78 ± 0.22; (treatment: MLN4924 1 uM, 8 h) 4.83 ± 0.37.

For NGFTPLHFAAASTHGALCLELLVN [ANKRD44], the protein stability index (treatment: DMSO) was found to be 3.06 ± 0.71 and the protein stability index (treatment: MLN4924 1 uM, 8 h) was determined as 2.95 ± 0.9.

NGRACEMNGEECAEDLRMLDASGE [IKZF1]: the protein stability index (treatment: DMSO) amounted to 5.07 ± 0.51 and the protein stability index (treatment: MLN4924 1 uM, 8 h) was 5.36 ± 0.53.

In the case of NGTAWTYHSQDELGGFSHWGRLTS [PKD2L1], the protein stability index reads like this: (treatment: DMSO) 2.38 ± 0.4; (treatment: MLN4924 1 uM, 8 h) 2.6 ± 0.2.

For the sequence NIIDIYKQESTRPEKKSDQPMCEE [TRIM55], the protein stability index reads like this: (treatment: DMSO) 5.05 ± 0.26; (treatment: MLN4924 1 uM, 8 h) 5.02 ± 0.052.

On to NIYCLNCEVPTCSLCKVFGAHKDC [TRIM55], for which the protein stability index came out at 3.11 ± 0.35 (treatment: DMSO) and 3.21 ± 0.48 (treatment: MLN4924 1 uM, 8 h).

For NKHLCYVFDSEKCVSIPDVVGWFV [GULP1], the protein stability index worked out at 2.76 ± 0.88 (treatment: DMSO) and 2.13 ± 0.51 (treatment: MLN4924 1 uM, 8 h).

Consider NKILQVFWEEHKASLGREESRAPS [CBY2], for which the protein stability index runs as follows: (treatment: DMSO) 3.02 ± 0.13; (treatment: MLN4924 1 uM, 8 h) 3.09 ± 0.22.

Take NKLTTLPSDFCGLTHLVKLDLSKN [LRRC59]: the protein stability index runs as follows: (treatment: DMSO) 2.37 ± 0.12; (treatment: MLN4924 1 uM, 8 h) 2.31 ± 0.14.

With NLLQYVRMPLLTPRYITDVIDAEP [KLHL12], the protein stability index came out at 2.29 ± 0.45 (treatment: DMSO) and 2.33 ± 0.26 (treatment: MLN4924 1 uM, 8 h).

In the case of NLQSLINNEIPDCYTFSVLITFDN [MCOLN1], the protein stability index (treatment: DMSO) came out at 2.93 ± 0.22 and the protein stability index (treatment: MLN4924 1 uM, 8 h) was found to be 3.23 ± 0.74.

As to NMCMGRTSRGKLGGQDSFESIESY [ETS1], the protein stability index (treatment: DMSO) turned out to be 3.612 ± 0.034 and the protein stability index (treatment: MLN4924 1 uM, 8 h) worked out at 3.72 ± 0.49.

Consider NMERIMKAQALRDNSTMGYMMAKK [HSP90AB1], for which the protein stability index (treatment: DMSO) is 3.38 ± 0.19.

With NMSREPFSTRALVLSILHATLPGI [SOAT2], the protein stability index reads like this: (treatment: DMSO) 3.18 ± 0.55; (treatment: MLN4924 1 uM, 8 h) 2.93 ± 0.62.

NPIGHLPESLTKPDQVAPFTFLQP [ATF4]: the protein stability index is, setting by setting: (treatment: DMSO) 3.56 ± 0.11; (treatment: MLN4924 1 uM, 8 h) 3.8 ± 0.49.

Regarding NPQALSPQFTGILQLLQSRTSRKF [INTS3], the protein stability index is 2.93 ± 0.22 (treatment: DMSO) and 2.98 ± 0.35 (treatment: MLN4924 1 uM, 8 h).

Sequence NREACRDLSGRRLRDVNHEKAMAE [SDE2] had a protein stability index (treatment: DMSO) of 5.01 ± 0.12 and a protein stability index (treatment: MLN4924 1 uM, 8 h) of 4.87 ± 0.32.

Regarding NRERVVSLIEDLQRELEIPEQQVD [ZNF449], the protein stability index by setting is: (treatment: DMSO) 5.13 ± 0.23; (treatment: MLN4924 1 uM, 8 h) 5.17 ± 0.16.

NRPLSLKDQQTFARSVGLKWRKVG [TRADD]: the protein stability index is, setting by setting: (treatment: DMSO) 3.03 ± 0.15; (treatment: MLN4924 1 uM, 8 h) 3.17 ± 0.11.

Regarding NRYGDVPCLDQTRVKLTKRSGHTQ [PTPN9], the protein stability index is 3.96 ± 0.4 (treatment: DMSO) and 4.36 ± 0.26 (treatment: MLN4924 1 uM, 8 h).

Turning to NSHLTSVPHWINSNTLGFGTEQAP [ETS2], the protein stability index is, setting by setting: (treatment: DMSO) 3.42 ± 0.15; (treatment: MLN4924 1 uM, 8 h) 3.45 ± 0.21.

As for NSPGAYRSHPDNAIPIKSWFSDPS [CTDNEP1], the protein stability index (treatment: DMSO) amounted to 3.37 ± 0.23 and the protein stability index (treatment: MLN4924 1 uM, 8 h) was determined as 3.4 ± 0.12.

Consider NSVNDQTKILVVNAAYFVGKWMKK [SERPINB5], for which the protein stability index turned out to be 2.3 ± 0.26 (treatment: DMSO) and 2.48 ± 0.5 (treatment: MLN4924 1 uM, 8 h).

With NTFVRYLLKRIKKCCGMRNTDVSM [KCNK9], the protein stability index was 3.38 ± 0.59 (treatment: DMSO) and 3 ± 0.35 (treatment: MLN4924 1 uM, 8 h).

On to NVHATTATGDTALTYACENGHTDV [ANKRD17], for which the protein stability index reads like this: (treatment: DMSO) 4.82 ± 0.33; (treatment: MLN4924 1 uM, 8 h) 4.88 ± 0.19.

Consider NVRDRDSGRNGEVSLDISPDLPFQ [PCDHGC5], for which the protein stability index by setting is: (treatment: DMSO) 4.76 ± 0.42; (treatment: MLN4924 1 uM, 8 h) 4.59 ± 0.22.

On to NWIELLSGETWNPLKLHYQLRNVR [GOLPH3], for which the protein stability index runs as follows: (treatment: DMSO) 2.43 ± 0.73; (treatment: MLN4924 1 uM, 8 h) 2.36 ± 0.61.

For NWTVAFAPDGSYFAWSQGHRTVKL [WSB1], the protein stability index runs as follows: (treatment: DMSO) 2.42 ± 0.53; (treatment: MLN4924 1 uM, 8 h) 2.47 ± 0.44.

For the sequence NYECNLYTFLYLVCISTKTQCSEE [FEM1B], the protein stability index came out at 3.11 ± 0.38 (treatment: DMSO) and 2.81 ± 0.4 (treatment: MLN4924 1 uM, 8 h).

Regarding PADIQAQFAISRELIRNIYNSFHK [SNX8], the protein stability index runs as follows: (treatment: DMSO) 2.04 ± 0.29; (treatment: MLN4924 1 uM, 8 h) 2.24 ± 0.3.

PADPTGNLGGGDPKGWRQLAQEAE [OAS1]: the protein stability index was 5.17 ± 0.19 (treatment: DMSO) and 4.97 ± 0.18 (treatment: MLN4924 1 uM, 8 h).

Consider PAGGLAPGGGRGALLDQIRQGIQL [WAS], for which the protein stability index by setting is: (treatment: DMSO) 4.7 ± 0.19; (treatment: MLN4924 1 uM, 8 h) 4.54 ± 0.76.

As for PAPEAESKQTEKDPGVQELEALID [EFHC1], the protein stability index is, setting by setting: (treatment: DMSO) 5.51 ± 0.2; (treatment: MLN4924 1 uM, 8 h) 5.57 ± 0.17.

For PAYKVSGDKNEEQVLNAIEAYTEH [ZER1], the protein stability index came to 5.06 ± 0.17 (treatment: DMSO) and 5.02 ± 0.17 (treatment: MLN4924 1 uM, 8 h).

Consider PCAAAREGRLERRECGLAAPRFSF [IRX6], for which the protein stability index reads like this: (treatment: DMSO) 3.01 ± 0.21; (treatment: MLN4924 1 uM, 8 h) 2.89 ± 0.4.

Take PDFPSINMDPAGLDDEDDTSIGMP [RETREG3]: the protein stability index (treatment: DMSO) amounted to 5.49 ± 0.18 and the protein stability index (treatment: MLN4924 1 uM, 8 h) worked out at 5.53 ± 0.11.

PFSECGEAVSDSTPFLTNHGAHKA [ZNF263] displayed a protein stability index (treatment: DMSO) of 4.76 ± 0.24 and a protein stability index (treatment: MLN4924 1 uM, 8 h) of 4.93 ± 0.32.

PFVCPECGQPCSQKSGLIRHQKIH [ZNF649] had a protein stability index (treatment: DMSO) of 4.65 ± 0.3 and a protein stability index (treatment: MLN4924 1 uM, 8 h) of 4.78 ± 0.3.

As to PGEQGGGKLVLSSLPKRLCLVCGD [ESRRA], the protein stability index worked out at 2.79 ± 0.19 (treatment: DMSO) and 3.25 ± 0.29 (treatment: MLN4924 1 uM, 8 h).

PGPASGPGPDTGPDSELSPCIPPG [SPAG8]: the protein stability index (treatment: DMSO) was 5.4 ± 0.24 and the protein stability index (treatment: MLN4924 1 uM, 8 h) amounted to 5.36 ± 0.24.

With PGVFVLLACGTMSSTCGQLASYPL [SLC25A25], the protein stability index amounted to 3.18 ± 0.3 (treatment: DMSO) and 2.66 ± 0.61 (treatment: MLN4924 1 uM, 8 h).

Turning to PHSAKTEEHTTILRPSYTGLSSSS [CDC14A], the protein stability index by setting is: (treatment: DMSO) 4.4 ± 0.33; (treatment: MLN4924 1 uM, 8 h) 4.58 ± 0.2.
